Data from PMC6627510 (2019).

Molecular target: Stl_(SaPIbov1) protein (staphylococcal repressor) (Staphylococcus aureus)
Assay: ITC

Binder | Kd [nM]
Escherichia coli dUTPase Q93H mutant (enzyme) not shown | 60.8
Escherichia coli dUTPase Q93R mutant (enzyme) not shown | 97.2
